According to patent publication US20250116673A1 (published 2025):

T1: SARS-CoV-2 Spike protein peptide on HLA-DPA1*01:03 / HLA-DPB1*04:01 (human)
T1 peptide: TFEYVSQPFLMDLE

B1: TCR4.1 (TCR)
alpha TRAV35 TRAJ42 CDR3: CAGMNYGGSQGNLIF
beta TRBV4-1 TRBJ1-2 CDR3: CASSQGVGYTF
B2: TCR6.3 (TCR)
alpha TRAV35 TRAJ42 CDR3: CAGMNYGGSQGNLIF
beta TRBV6-3 TRBJ1-2 CDR3: CASSYRGAYGYTF

Molecular target: T1, SARS-CoV-2 Spike protein peptide on …
Assay: multimer staining

Binder	binding result
B1	recognises
B2	recognises
